± gives the standard error. Variants at the floor of the assay were thinned out.
B1: glmS ribozyme (parent)
chain: AUAAAAGCGCCAGAACUACAGAAAUGUAGUUGACGAGGAGGAGGUUUAUCGAAUUUUCGGCGGAUGCCUCCAAA

What was measured:
Conditions in all cases: with glucosamine-6-phosphate
glucosamine-6-phosphate [1] = variants of: B1; test: self-cleavage kobs at 40 uM GlcN6P; higher = faster cleavage; RNA array
Outline: (§1)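 Glucosamine-6-phosphate, from 40 μM to 10 mM in HEPES/KCl/Mg(OAc)2 buffer, was flowed over sequenced MiSeq chips carrying barcoded ribozyme variants transcribed in situ by E. coli RNA polymerase. A hybridised Cy3 probe tracked the variants at 37 °C as tiles were imaged over ~14 h. kobs, kcat and KM were obtained by fitting normalised per-tile medians to exponential decays and then applying weighted Michaelis–Menten fits across concentrations.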

glucosamine-6-phosphate [2] = variants of: B1; test: self-cleavage kobs at 160 uM GlcN6P; higher = faster cleavage; RNA array
Outline: as §1

glucosamine-6-phosphate [3] = variants of: B1; test: self-cleavage kobs at 640 uM GlcN6P; higher = faster cleavage; RNA array
Outline: as §1

glucosamine-6-phosphate [4] = variants of: B1; test: self-cleavage kobs at 10000 uM GlcN6P; higher = faster cleavage; RNA array
Outline: as §1

glucosamine-6-phosphate [5] = variants of: B1; test: self-cleavage kobs at 2500 uM GlcN6P; higher = faster cleavage; RNA array
Outline: as §1

Variant	self-cleavage kobs at 40 uM GlcN6P (glucosamine-6-phosphate [1])	self-cleavage kobs at 160 uM GlcN6P (glucosamine-6-phosphate [2])	self-cleavage kobs at 640 uM GlcN6P (glucosamine-6-phosphate [3])	self-cleavage kobs at 10000 uM GlcN6P (glucosamine-6-phosphate [4])	self-cleavage kobs at 2500 uM GlcN6P (glucosamine-6-phosphate [5])
G9A A14G U30A	< 1e-05 s⁻¹	< 1e-05 s⁻¹	< 1e-05 s⁻¹	4.06e-05 ± 1.5e-05 s⁻¹	–
C8U A64C	< 1e-05 s⁻¹	< 1e-05 s⁻¹	< 1e-05 s⁻¹	–	< 1e-05 s⁻¹
C8U A64U	< 1e-05 s⁻¹	< 1e-05 s⁻¹	< 1e-05 s⁻¹	< 1e-05 s⁻¹	< 1e-05 s⁻¹
G7U U45G C71A	< 1e-05 s⁻¹	–	–	< 1e-05 s⁻¹	< 1e-05 s⁻¹
G9A G29C	< 1e-05 s⁻¹	< 1e-05 s⁻¹	< 1e-05 s⁻¹	< 1e-05 s⁻¹	–
G9A A42C C71G	< 1e-05 s⁻¹	–	–	–	–
C8G C34A A53C G60C	< 1e-05 s⁻¹	< 1e-05 s⁻¹	< 1e-05 s⁻¹	–	< 1e-05 s⁻¹
C8A C34U U47C C67U	< 1e-05 s⁻¹	–	–	< 1e-05 s⁻¹	–
C8G G32C G62U	< 1e-05 s⁻¹	–	–	< 1e-05 s⁻¹	–
C8U C16U C50G G60A G66U	0.000197 ± 6.5e-05 s⁻¹	9.7e-05 ± 4.4e-05 s⁻¹	–	0.000101 ± 2.7e-05 s⁻¹	–
C8U U65G	< 1e-05 s⁻¹	< 1e-05 s⁻¹	< 1e-05 s⁻¹	< 1e-05 s⁻¹	< 1e-05 s⁻¹
C8A C11G	< 1e-05 s⁻¹	< 1e-05 s⁻¹	< 1e-05 s⁻¹	< 1e-05 s⁻¹	< 1e-05 s⁻¹
C8A C11U	< 1e-05 s⁻¹	–	< 1e-05 s⁻¹	< 1e-05 s⁻¹	< 1e-05 s⁻¹
C8A G40C	< 1e-05 s⁻¹	< 1e-05 s⁻¹	< 1e-05 s⁻¹	< 1e-05 s⁻¹	< 1e-05 s⁻¹
C8U A33C	< 1e-05 s⁻¹	< 1e-05 s⁻¹	< 1e-05 s⁻¹	< 1e-05 s⁻¹	< 1e-05 s⁻¹
C8U A33G	< 1e-05 s⁻¹	< 1e-05 s⁻¹	< 1e-05 s⁻¹	< 1e-05 s⁻¹	–
G9A C11G	< 1e-05 s⁻¹	< 1e-05 s⁻¹	< 1e-05 s⁻¹	< 1e-05 s⁻¹	< 1e-05 s⁻¹
C8A A12U A33C A39G A53C C68A	< 1e-05 s⁻¹	–	–	–	–
G9C G29U U69A	< 1e-05 s⁻¹	< 1e-05 s⁻¹	< 1e-05 s⁻¹	< 1e-05 s⁻¹	< 1e-05 s⁻¹
C8U G38U A39C C58A	< 1e-05 s⁻¹	–	–	–	–
C8G U31A G41C	< 1e-05 s⁻¹	–	–	–	–

Variant	self-cleavage kobs at 40 uM GlcN6P (glucosamine-6-phosphate [1])	self-cleavage kobs at 160 uM GlcN6P (glucosamine-6-phosphate [2])	self-cleavage kobs at 640 uM GlcN6P (glucosamine-6-phosphate [3])	self-cleavage kobs at 10000 uM GlcN6P (glucosamine-6-phosphate [4])	self-cleavage kobs at 2500 uM GlcN6P (glucosamine-6-phosphate [5])
G9A G43U	< 1e-05 s⁻¹	< 1e-05 s⁻¹	< 1e-05 s⁻¹	–	< 1e-05 s⁻¹
G9A G43A	< 1e-05 s⁻¹	–	< 1e-05 s⁻¹	–	< 1e-05 s⁻¹
G9A A14U C61A	< 1e-05 s⁻¹	–	–	–	< 1e-05 s⁻¹
G9C C71U	< 1e-05 s⁻¹	< 1e-05 s⁻¹	< 1e-05 s⁻¹	< 1e-05 s⁻¹	< 1e-05 s⁻¹
G9C C16U U47G C61U	< 1e-05 s⁻¹	–	–	< 1e-05 s⁻¹	–
C8U C16U A52G	< 1e-05 s⁻¹	–	–	–	–
C8A C11G U46G	< 1e-05 s⁻¹	–	–	< 1e-05 s⁻¹	–
C8G C10A G60U	< 1e-05 s⁻¹	–	–	< 1e-05 s⁻¹	–
C8G G9C U55A	< 1e-05 s⁻¹	–	< 1e-05 s⁻¹	< 1e-05 s⁻¹	< 1e-05 s⁻¹
C8U U31G G62U	< 1e-05 s⁻¹	–	–	–	–
G7U U31C G59U	< 1e-05 s⁻¹	–	–	–	–
C8G C70A	< 1e-05 s⁻¹	–	–	< 1e-05 s⁻¹	< 1e-05 s⁻¹
G9A U31G	< 1e-05 s⁻¹	< 1e-05 s⁻¹	–	–	< 1e-05 s⁻¹
C8G G9C C16A G38A G40U U49G U57C	< 1e-05 s⁻¹	–	–	< 1e-05 s⁻¹	–
C8G C61U G66A C70U	< 1e-05 s⁻¹	–	–	–	–
C8U G9A C50G C67U	6.37e-05 ± 1.7e-05 s⁻¹	–	–	6.88e-05 ± 1.6e-05 s⁻¹	0.000169 ± 4.6e-05 s⁻¹
C8U A12U A33C G59U C67G U69G	< 1e-05 s⁻¹	–	–	< 1e-05 s⁻¹	< 1e-05 s⁻¹
C8A C11G G38U G60A	< 1e-05 s⁻¹	< 1e-05 s⁻¹	< 1e-05 s⁻¹	–	–
C8A C10G	< 1e-05 s⁻¹	< 1e-05 s⁻¹	< 1e-05 s⁻¹	< 1e-05 s⁻¹	< 1e-05 s⁻¹
C8G C71U	< 1e-05 s⁻¹	< 1e-05 s⁻¹	< 1e-05 s⁻¹	< 1e-05 s⁻¹	< 1e-05 s⁻¹
C8G C71A	< 1e-05 s⁻¹	< 1e-05 s⁻¹	< 1e-05 s⁻¹	–	< 1e-05 s⁻¹
